The target in one test is T1, PDZ 2 of MAGI-3 (Homo sapiens, UniProt Q5TCQ9).
T1 construct: made in house; host or cells: E. coli
T1 sequence (Q5TCQ9 584-707 isoform Q5TCQ9-2): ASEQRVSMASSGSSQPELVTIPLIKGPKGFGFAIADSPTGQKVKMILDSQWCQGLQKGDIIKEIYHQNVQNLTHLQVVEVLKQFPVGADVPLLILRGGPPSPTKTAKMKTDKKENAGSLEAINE
The test is described as follows: GST-PDZ co-precipitation of proteins from transfected HEK 293 cell extracts. The test is classed as binding. Particulars: extracts from transfected HEK 293 cells; FIG. 6. Here is the method: (§1) HEK 293 (293) cells grown in high glucose Dulbeco's Modified Eagle Medium (DMEM), 10% fetal calf serum, 1× non-essential amino acid supplement, 1×L-glutamine supplement, 10 mM HEPES (pH 7.4) and penicillin/streptomycin (all from Life Technologies) to ˜80% confluence were transfected with 2 μg DNA/35 mm diameter well (for example, DNAs encoding the sequences described in EXAMPLE 5.0) using Fugene reagent (Roche Biochemical). 24 hours post-transfection, cells were washed once with PBS and then scraped into 1 ml/well of 20 mM Tris (pH 7.5), 1% Triton X-100, 200 mM NaCl, 1 mM dithiothreitol, and protease inhibitor cocktail with EDTA (Roche Biochemical, catalog #1836145) and homogenized gently with three to five strokes in a dounce (Wheaton) using a loose glass pestle. Extracts were centrifuged at 12,000 rpm in a tabletop centrifuge at 4° C. for 10 minutes; the supernatant was combined with an equal volume of homogenization buffer without NaCl to achieve a final salt concentration of 100 mM and frozen at −70° C. until use. […] Binding of 293 cell-expressed proteins was detected by immunoblot analysis using antibodies against GFP (Clontech) and Her 2 (Santa Cruz Biotechnology).
(§2) Amino acids 1217-1371 of ERBIN and 584-707 corresponding to PDZ 2 of MAGI-3 (Sidhu et al., 2000); were expressed in E. coli as GST fusions. […] Equal volumes of extract and depleted extract (sup.) were analyzed.

For test [1], the target named is T2, ERBIN PDZ domain (Homo sapiens, UniProt Q96RT1). The test is described as above. In kind it is binding. Further details: made in house; host or cells: E. coli. Particulars: extracts from transfected HEK 293 cells; FIG. 6. Here is the method: as §1, §2
Target sequence in this assay (Q96RT1 1258-1412): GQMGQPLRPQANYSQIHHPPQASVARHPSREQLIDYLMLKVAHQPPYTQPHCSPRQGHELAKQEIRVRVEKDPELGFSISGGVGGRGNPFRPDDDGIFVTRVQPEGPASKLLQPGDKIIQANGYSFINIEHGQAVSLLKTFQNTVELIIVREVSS
The target of test [2] is T2, ERBIN PDZ domain. Description: Co-localization of ERBIN PDZ and δ-catenin in transfected HEK 293 cells. The test is classed as cell-based. Set-up: expressed in transfected cells; host or cells: HEK 293. The following applies: co-transfected HEK 293 cells; FIG. 7. As for the experimental part: HEK 293 cells were grown to 70% confluence on collagen IV coated coverslips and then transfected with 1.4 μg of GST-ERBIN PDZ in pcDNA 3.1/V5/His and 1.1 μg of the indicated EGFP construct. 24 to 48 hours post-transfection, the cells were washed in PBS, fixed for 30 minutes in 2.5% formaldehyde, permeabilized with 0.25% Triton X-100 in PBS, and blocked with 5% donkey serum in PBS. The ERBIN PDZ domain was visualized by staining with monoclonal anti-V5 antibody (Invitrogen) and Cy3-conjugated secondary antibodies (Jackson Immunolabs) whereas GFP fusions were visualized directly. Images were taken on a standard fluorescence microscope using a 40× objective and digital CCD camera and SPOT imaging software (Diagnostic Instruments, Inc.; Sterling Heights, Mich.).
The ERBIN PDZ domain was co-transfected into HEK 293 E cells with EGFP, human δ-catenin or human δ-catenin missing the six C-terminal amino acids (FIG. 7).
Target sequence in this assay (Q96RT1 1314-1412): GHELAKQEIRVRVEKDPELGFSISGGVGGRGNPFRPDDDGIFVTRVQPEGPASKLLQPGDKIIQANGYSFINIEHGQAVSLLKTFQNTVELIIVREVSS

B1: δ-catenin: member of the Armadillo family, expressed as EGFP fusion in HEK 293 cells; candidate ERBIN PDZ ligand (protein)
chain: MFARKPPGAAPLGAMPVPDQPSSASEKTSSLSPGLNTSNGDGSETETTSAILASVKEQELQFERLTRELEAERQIVASQLERCKLGSETGSMSSMSSAEEQFQWQSQDGQKDIEDELTTGLELVDSCIRSLQESGILDPQDYSTGERPSLLSQSALQLNSKPEGSFQYPASYHSNQTLALGETTPSQLPARGTQARATGQSFSQGTTSRAGHLAGPEPAPPPPPPPREPFAPSLGSAFHLPDAPPAAAAAALYYSSSTLPAPPRGGSPLAAPQGGSPTKLQRGGSAPEGATYAAPRGSSPKQSPSRLAKSYSTSSPINIVVSSAGLSPIRVTSPPTVQSTISSSPIHQLSSTIGTYATLSPTKRLVHASEQYSKHSQELYATATLQRPGSLAAGSRASYSSQHGHLGPELRALQSPEHHIDPIYEDRVYQKPPMRSLSQSQGDPLPPAHTGTYRTSTAPSSPGVDSVPLQRTGSQHGPQNAAAATFQRASYAAGPASNYADPYRQLQYCPSVESPYSKSGPALPPEGTLARSPSIDSIQKDPREFGWRDPELPEVIQMLQHQFPSVQSNAAAYLQHLCFGDNKIKAEIRRQGGIQLLVDLLDHRMTEVHRSACGALRNLVYGKANDDNKIALKNCGGIPALVRLLRKTTDLEIRELVTGVLWNLSSCDALKMPIIQDALAVLTNAVIIPHSGWENSPLQDDRKIQLHSSQVLRNATGCLRNVSSAGEEARRRMRECDGLTDALLYVIQSALGSSEIDSKTVENCVCILRNLSYRLAAETSQGQHMGTDELDGLLCGEANGKDAESSGCWGKKKKKKKSQDQWDGVGPLPDCAEPPKGIQMLWHPSIVKPYLTLLSECSNPDTLEGAAGALQNLAAGSWKWSVYIRAAVRKEKGLPILVELLRIDNDRVVCAVATALRNMALDVRNKELIGKYAMRDLVHRLPGGNNSNNTASKAMSDDTVTAVCCTLHEVITKNMENAKALRDAGGIEKLVGISKSKGDKHSPKVVKAASQVLNSMWQYRDLRSLYKKDGWSQYHFVASSSTIERDRQRPYSSSRTPSISPVRVSPNNRSASAPASPREMISLKERKTDYECTGSNATYHGAKGEHTSRKDAMTAQNTGISTLYRNSYGAPAEDIKHNQVSAQPVPQEPSRKDYETYQPFQNSTRNYDESFFEDQVHHRPPASEYTMHLGLKSTGNYVDFYSAARPYSELNYETSHYPASPDSWV
modifications: left off: large carriers
notes: member of the Armadillo family, expressed as EGFP fusion in HEK 293 cells; candidate ERBIN PDZ ligand
For the molecule B1, the “binding to / precipitation by GST-MAGI-3 PDZ 2” value with PDZ 2 of MAGI-3 is on record as “not to PDZ 2 of MAGI-3”. In the test with ERBIN PDZ domain [1], the “binding to / precipitation by GST-ERBIN PDZ” value was “binds strongly”. Further, in the test with ERBIN PDZ domain [2], the “co-localization with / recruitment of ERBIN PDZ domain” value is on record as “complete recruitment of ERBIN PDZ to the cell junction”.

The values above are taken from patent US20030148264A1, “Phage displayed PDZ domain ligands” (GENENTECH, INC., priority 2001, published 2003).
